Experimental data: article PMC13696528 (2026)
No end group written: not given here.

Biological target: PD-L1 (UniProt Q9NZQ7)
Experiment: SPR

PD-L1, sequence (Q9NZQ7 19-238): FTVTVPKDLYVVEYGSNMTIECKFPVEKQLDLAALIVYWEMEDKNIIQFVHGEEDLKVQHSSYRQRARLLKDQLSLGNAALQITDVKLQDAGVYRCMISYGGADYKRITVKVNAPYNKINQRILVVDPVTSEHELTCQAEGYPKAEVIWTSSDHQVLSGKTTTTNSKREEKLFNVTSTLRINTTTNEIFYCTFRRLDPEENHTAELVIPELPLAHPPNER

- Kd: 27.8 nM
Binder: NTGYFYGDQ (also: co-assembled nanofiber with IR-CF3) [PSP (PSP@IR-CF3 nanofiber)]
